The labels stand for the following.
B1: K118A: K118A mutation in hTom70 (protein)
chain: MNSLDRAQAAANKGNKYFKAGKYEQAIQCYTEAISLCPTEKNVDLSTFYQNRAAAFEQLQKWKEVAQDCTKAVELNPKYVKALFRRAKAHEKLDNKKECLEDVTAVCILEGFQNQQSMLLADKVLKLLGKEKAKEKYKNREPLMPSPQFIKSYFSSFTDDIISQPMLKGEKSDEDKDKEGEALEVKENSGYLKAKQYMEEENYDKIISECSKEIDAEGKYMAEALLLRATFYLLIGNANAAKPDLDKVISLKEANVKLRANALIKRGSMYMQQQQPLLSTQDFNMAADIDPQNADVYHHRGQLKILLDQVEEAVADFDECIRLRPESALAQAQKCFALYRQAYTGNNSSQIQAAMKGFEEVIKKFPRCAEGYALYAQALTDQQQFGKADEMYDKCIDLEPDNATTYVHKGLLQLQWKQDLDRGLELISKAIEIDNKCDFAYETMGTIEVQRGNMEKAIDMFNKAINLAKSEMEMAHLYSLCDAAHAQTEVAKKYGLKPPTL
B2: K188A: K188A mutation in Tom70 (protein)
chain: MNSLDRAQAAKNKGNKYFKAGKYEQAIQCYTEAISLCPTEKNVDLSTFYQNRAAAFEQLQKWKEVAQDCTKAVELNPKYVAALFRRAKAHEKLDNKKECLEDVTAVCILEGFQNQQSMLLADKVLKLLGKEKAKEKYKNREPLMPSPQFIKSYFSSFTDDIISQPMLKGEKSDEDKDKEGEALEVKENSGYLKAKQYMEEENYDKIISECSKEIDAEGKYMAEALLLRATFYLLIGNANAAKPDLDKVISLKEANVKLRANALIKRGSMYMQQQQPLLSTQDFNMAADIDPQNADVYHHRGQLKILLDQVEEAVADFDECIRLRPESALAQAQKCFALYRQAYTGNNSSQIQAAMKGFEEVIKKFPRCAEGYALYAQALTDQQQFGKADEMYDKCIDLEPDNATTYVHKGLLQLQWKQDLDRGLELISKAIEIDNKCDFAYETMGTIEVQRGNMEKAIDMFNKAINLAKSEMEMAHLYSLCDAAHAQTEVAKKYGLKPPTL
B3: N158A: N158A mutation in hTom70 (protein)
chain: MNSLDRAQAAKNKGNKYFKAGKYEQAIQCYTEAISLCPTEKNVDLSTFYQARAAAFEQLQKWKEVAQDCTKAVELNPKYVKALFRRAKAHEKLDNKKECLEDVTAVCILEGFQNQQSMLLADKVLKLLGKEKAKEKYKNREPLMPSPQFIKSYFSSFTDDIISQPMLKGEKSDEDKDKEGEALEVKENSGYLKAKQYMEEENYDKIISECSKEIDAEGKYMAEALLLRATFYLLIGNANAAKPDLDKVISLKEANVKLRANALIKRGSMYMQQQQPLLSTQDFNMAADIDPQNADVYHHRGQLKILLDQVEEAVADFDECIRLRPESALAQAQKCFALYRQAYTGNNSSQIQAAMKGFEEVIKKFPRCAEGYALYAQALTDQQQFGKADEMYDKCIDLEPDNATTYVHKGLLQLQWKQDLDRGLELISKAIEIDNKCDFAYETMGTIEVQRGNMEKAIDMFNKAINLAKSEMEMAHLYSLCDAAHAQTEVAKKYGLKPPTL
B4: R192A: R192A mutation in Tom70 (protein)
chain: MNSLDRAQAAKNKGNKYFKAGKYEQAIQCYTEAISLCPTEKNVDLSTFYQNRAAAFEQLQKWKEVAQDCTKAVELNPKYVKALFARAKAHEKLDNKKECLEDVTAVCILEGFQNQQSMLLADKVLKLLGKEKAKEKYKNREPLMPSPQFIKSYFSSFTDDIISQPMLKGEKSDEDKDKEGEALEVKENSGYLKAKQYMEEENYDKIISECSKEIDAEGKYMAEALLLRATFYLLIGNANAAKPDLDKVISLKEANVKLRANALIKRGSMYMQQQQPLLSTQDFNMAADIDPQNADVYHHRGQLKILLDQVEEAVADFDECIRLRPESALAQAQKCFALYRQAYTGNNSSQIQAAMKGFEEVIKKFPRCAEGYALYAQALTDQQQFGKADEMYDKCIDLEPDNATTYVHKGLLQLQWKQDLDRGLELISKAIEIDNKCDFAYETMGTIEVQRGNMEKAIDMFNKAINLAKSEMEMAHLYSLCDAAHAQTEVAKKYGLKPPTL

This is an account of results in paper doi:10.1101/2025.11.18.689095 (bioRxiv, 2025).

In the assay the test system is biotinylated full-length Hsp90. The assay can be described thus: BLI, Tom70 mutants binding to biotinylated full-length Hsp90. Also on record: species or system human. The settings on record: biotinylated full-length Hsp90 immobilized, Tom70 40 µM, Fig S7B. The procedure:
Biotinylated Hsp90 proteins were immobilized onto streptavidin biosensor probes, and experiments were conducted in buffer containing 20 mM sodium phosphate (pH 7), 150 mM NaCl, 1% BSA, 0.6 M sucrose, and 1 mM TCEP[68]. […] To combat heterogenous binding, dissociation curves were fit with a two-phase exponential curve. Due to the association rate (kon) being too rapid to quantify, kon values were indirectly estimated by combining koff values obtained from BLI with KD values determined by ITC ( kon=koffBLI/KDITC ). All data are corrected for non-specific binding. Error is given as the standard deviation of at least two measurements.
Supplementary Figure 7: (A) Interacting residues between Tom70 and Hsp90EEVD peptide. (B) BLI sensorgrams of biotinylated full-length Hsp90 assayed to Tom70 mutants. WT refers to “wild-type” Tom70. All Tom70 concentrations are at 40 µM. Dotted line demarcates the beginning of the dissociation phase. (C-D) ITC thermograms and isotherms for the interaction of Tom70 to an (C) amidated Hsp90EEVD peptide and a (D) Hsp90EQVD peptide. N.D. stands for “not-detected” due to the lack of sufficient heat generated.
(1 picture or pasted object on this page, not shown here)
Turning to B1, the “binding of Tom70 mutant to Hsp90” value is “eliminated binding”.

With B2, the “binding of Tom70 mutant to Hsp90” value is listed as “abrogated binding”.

On to B3, for which the “binding of Tom70 mutant to Hsp90” value was “eliminated binding”.

On to B4, for which the “binding of Tom70 mutant to Hsp90” value is “abrogated binding”.
